# Patent publication US9458437B2, “Neuroprotective peptides that inhibit interaction between palmitoyl acyl transferase zinc-finger DHHC type containing 17 (zD17) and c-jun N-terminal kinase (JNK)” (The University of British Columbia, priority 2011, dated 2016)
# Columns and labels:
# [1] = target: T1, zD17-JNK2 interaction (Rattus norvegicus, UniProt P49186); test: co-immunoprecipitation of zD17 with JNK2 in neuronal cultures; assay type: cell-based; conditions: NMDA
# T1 construct: endogenous in cells; host or cells: primary cortical neurons of embryonic Wistar rat
# Protocol: All animal experiments were approved by the Animal Care Committee of the University of British Columbia. Primary cortical cultures were prepared from Wistar rat (UBC Animal Care Centre, Vancouver, BC, Canada) brains at embryonic days 18-19. Cultures were maintained in Neurobasal medium supplemented with B27 and 0.5 mM glutamax (Invitrogen™) as described previously (Yang et al., 2009).
# (§1) The protocols for protein extraction have been described previously (Yang et al., 2009). For co-immunoprecipitation, cultured cells were washed with ice-cold PBS followed by incubation with 0.5 ml Gentle Lysis Buffer (GLB) containing 25 mM Tris-HCl (pH 7.4), 2 mM EDTA, 1 mM EGTA, 10 mM NaCl, 0.5% Triton X-100 and 10% Glycerol supplemented with the Complete Protease Inhibitor Tablets (Roche Applied Science™, Indianapolis, Ind., USA) and 1 mM PMSF. Total protein concentration was determined with the BioRad™ Protein Assay kit. Lysates were first precleaned by incubating with Protein A-Sepharose beads (Roche Applied Science™) for 1 h at 4° C., followed by incubation with indicated antibodies (>16 h at 4° C.) and protein A Sepharose bead (2 h at 4° C.). Lysates of rat brain tissues were precleaned with IgG and protein A-beads. Immunoprecipitates were washed three times with GLB buffer; boiled in 2× loading buffer with 1 mM dithiothreitol (DTT) for 3 min; and analyzed with SDS-PAGE as described previously (Yang et al., 2009). The relative intensities of the bands on immunoblots were analyzed and quantified using Image J™ (NIH).
# [2] = target: T2, JNK2 (Rattus norvegicus, UniProt P49186); test: kinase assay (KA) on JNK2 immunoprecipitated from cell lysates; assay type: cell-based; conditions: for JNK2 activity normalized to 0 h: NMDA + NIMoE
# T2 construct: JNK is immunoprecipitated from the cell lysate; endogenous in cells; host or cells: rat primary neuronal cultures; JNK2 immunoprecipitated from lysate
# Protocol: JNK activity was measured with an in vitro kinase assay as described elsewhere (see, for e.g.: Khatlani et al., 2007). Briefly, cell lysates were prepared and JNK was immunoprecipitated with specific antibodies. The immnoprecipitates were then resuspended in 1× kinase buffer (Cell Signaling Technology™) supplemented with 200 μM ATP and 250 μg/ml GST-c-jun (1-89), and incubated at 30° C. for 30 min. Reactions were terminated by the addition of SDS-PAGE sample buffer. Phosphorylated c-jun was resolved by SDS-PAGE and detected with anti-p-c-jun.
# [3] = system: middle cerebral artery occlusion (MCAo); test: transient MCAo in SD rats, neurological scores; assay type: in vivo, Sprague-Dawley rat
# Protocol: Adult male Sprague-Dawley (SD) rats weighing 250-290 g were employed for transient middle cerebral artery occlusion. Rats were anaesthetized with 5% isofluorane and maintained with 2% isofluorane in 70% N2O and 30% O2 using a face mask. 5 mg/kg ketoprofen was given pre-surgery to block pain. Rectal temperature was maintained at 37° C. during surgery with a homeothermic blanket system (Harvard Apparatus™, Holliston, Mass.). The scalp was incised at the midline and the skull was exposed. The skull was thinned with a dental drill at a region ipsilateral to the expected ischemia zone (2 mm posterior and 5 mm lateral from the bregma). […]
# Peptides were synthesized by PepMetric Technologies™ or GL Biochem™ (Shanghai, China). […] Injections of NIMoEscr and NIMoEsh were made, brain damage was assessed and functional evaluations performed in a double-blind manner To examine the delivery of the peptide into the brain, 5 mg/kg FITC-labelled NIMoE or only saline was intravenously injected 1 h before perfusion. […] After rapid freezing in Tissue-Tek™ embedding medium (Sakura™, Torrance, Calif.) on dry ice, 20 μm sections were cut on a cryostat (Leica™ CM3050, Ontario, Canada) and examined for FITC fluorescence by a laser microscopy (Zeiss™, Axiovert 200). […]
# [4] = target: zD17-JNK3 interaction (Rattus norvegicus, UniProt P49187); test: zD17-JNK3 interaction in the injured hemisphere after MCAo; assay type: in vivo, Sprague-Dawley rat; parameters: Lysates of rat brain tissues were precleaned with IgG and protein A-beads; from tissue; host or cells: brain (injured left hemisphere) of adult male Sprague-Dawley rats; conditions: single intravenous injection 30 min before MCAo
# Protocol: as §1, with “Lysates were first precleaned by incubating with Protein A-Sepharose beads (Roche Applied Science™) for 1 h at 4° C., followed by incubation with indicated antibodies (>16 h at 4° C.) and protein A Sepharose bead (2 h at 4° C.). Lysates of rat brain tissues were precleaned with IgG and protein A-beads.” left out, “(NIH). […]” for “(NIH).”
# Peptides were synthesized by PepMetric Technologies™ or GL Biochem™ (Shanghai, China). […] Injections of NIMoEscr and NIMoEsh were made, brain damage was assessed and functional evaluations performed in a double-blind manner To examine the delivery of the peptide into the brain, 5 mg/kg FITC-labelled NIMoE or only saline was intravenously injected 1 h before perfusion. […]
# Sequence of zD17-JNK3 interaction (P49187 whole entry): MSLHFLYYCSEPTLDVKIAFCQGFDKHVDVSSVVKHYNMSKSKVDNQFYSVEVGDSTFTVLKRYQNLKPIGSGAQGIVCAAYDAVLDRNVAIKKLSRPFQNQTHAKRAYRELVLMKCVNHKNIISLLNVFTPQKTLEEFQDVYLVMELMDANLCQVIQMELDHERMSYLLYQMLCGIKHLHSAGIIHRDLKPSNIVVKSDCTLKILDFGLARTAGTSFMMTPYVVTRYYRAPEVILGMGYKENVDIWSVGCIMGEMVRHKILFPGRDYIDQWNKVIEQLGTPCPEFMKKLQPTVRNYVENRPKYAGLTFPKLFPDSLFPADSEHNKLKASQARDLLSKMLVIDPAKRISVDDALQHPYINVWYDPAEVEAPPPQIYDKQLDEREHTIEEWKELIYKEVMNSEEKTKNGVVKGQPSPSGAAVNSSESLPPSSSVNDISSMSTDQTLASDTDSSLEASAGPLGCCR
sequence,measurement,setting,value
"MTPLMWAAYRTHSVDPTRLL (listed as Homo sapiens) [NIMoE, peptide comprising motif-E of zD17, fused to the cell-membrane transduction domain of HIV-1 Tat for cell experiments]",enhancement of the JNK2-zD17 interaction,[1],eliminated the enhancement
same,JNK2 activity normalized to 0 h,[2]; 0.5 h,103.7±5.0%
same,JNK2 activity normalized to 0 h,[2]; 1 h,90.9±10.9%
same,enhancement of JNK2 activity,"[2]; NMDA, neuronal cultures",eliminated the enhancement
"WAAYRTHSVD (listed as Homo sapiens) [NIMoEsh, shorter 10mer of NIMoE, primarily the loop region of motif-E (zD17 196-205)]",behavioural deficits evaluated with neurological scores,"[3]; NIMoEsh administration, MCAo rats",substantially reduced
same,duration of improvement of behavioural performance,"[3]; injected 2 h post-surgery, double-blinded",persisted over 14 days
same,enhancement of the zD17-JNK3 interaction after MCAo,[4],effectively attenuated
